# B1: Tumor necrosis factor receptor superfamily member 6 (Homo sapiens), P25445-1 (parent)
# chain: MLGIWTLLPLVLTSVARLSSKSVNAQVTDINSKGLELRKTVTTVETQNLEGLHHDGQFCHKPCPPGERKARDCTVNGDEPDCVPCQEGKEYTDKAHFSSKCRRCRLCDEGHGLEVEINCTRTQNTKCRCKPNFFCNSTVCEHCDPCTKCEHGIIKECTLTSNTKCKEEGSRSNLGWLCLLLLPIPLIVWVKRKEVQKTCRKHRKENQGSHESPTLNPETVAINLSDVDLSKYITTIAGVMTLSQVKGFVRKNGVNEAKIDEIKNDNVQDTAEQKVQLLRNWHQLHGKKEAYDTLIKDLKKANLCTLAEKIQTIILKDITSDSENSNFRNEIQSLV
# Variants of: B1
# Details: with fadd_human FADD
row,effect of a mutation on the interaction,Variant
1,disrupting interaction,MLGIWTLLPLVLTSVARLSSKSVNAQVTDINSKGLELRKTVTTVETQNLEGLHHDGQFCHKPCPPGERKARDCTVNGDEPDCVPCQEGKEYTDKAHFSSKCRRCRLCDEGHGLEVEINCTRTQNTKCRCKPNFFCNSTVCEHCDPCTKCEHGIIKECTLTSNTKCKEEGSRSNLGWLCLLLLPIPLIVWVKRKEVQKTCRKHRKENQGSHESPTLNPETVAINLSDVDLSKYITTIAGVMTLSQVKGFVRKNGVNEAKIDEIKNDNVQDKAEQKVQLLRNWHQLHGKKEAYDTLIKDLKKANLCTLAEKIQTIILKDITSDSENSNFRNEIQSLV [T270K]
2,disrupting interaction,MLGIWTLLPLVLTSVARLSSKSVNAQVTDINSKGLELRKTVTTVETQNLEGLHHDGQFCHKPCPPGERKARDCTVNGDEPDCVPCQEGKEYTDKAHFSSKCRRCRLCDEGHGLEVEINCTRTQNTKCRCKPNFFCNSTVCEHCDPCTKCEHGIIKECTLTSNTKCKEEGSRSNLGWLCLLLLPIPLIVWVKRKEVQKTCRKHRKENQGSHESPTLNPETVAINLSDVDLSKYITTIAGVMTLSQVKGFVRKNGVNEAKIDKIKNDNVQDTAEQKVQLLRNWHQLHGKKEAYDTLIKDLKKANLCTLAEKIQTIILKDITSDSENSNFRNEIQSLV [E261K]
3,disrupting interaction,MLGIWTLLPLVLTSVARLSSKSVNAQVTDINSKGLELRKTVTTVETQNLEGLHHDGQFCHKPCPPGERKARDCTVNGDEPDCVPCQEGKEYTDKAHFSSKCRRCRLCDEGHGLEVEINCTRTQNTKCRCKPNFFCNSTVCEHCDPCTKCEHGIIKECTLTSNTKCKEEGSRSNLGWLCLLLLPIPLIVWVKRKEVQKTCRKHRKENQGSHESPTLNPETVAINLSDVDLSKYITTIAGVMTLSQVKGFVRKNGVNEAKIDEIKNDNVQDTAKQKVQLLRNWHQLHGKKEAYDTLIKDLKKANLCTLAEKIQTIILKDITSDSENSNFRNEIQSLV [E272K]

# Continued, variant first:
row,Variant,effect of a mutation on the interaction
1,MLGIWTLLPLVLTSVARLSSKSVNAQVTDINSKGLELRKTVTTVETQNLEGLHHDGQFCHKPCPPGERKARDCTVNGDEPDCVPCQEGKEYTDKAHFSSKCRRCRLCDEGHGLEVEINCTRTQNTKCRCKPNFFCNSTVCEHCDPCTKCEHGIIKECTLTSNTKCKEEGSRSNLGWLCLLLLPIPLIVWVKRKEVQKTCRKHRKENQGSHESPTLNPETVAINLSDVDLSKYITTIAGVMTLSQVKGFVRKNGVNEDKIDEIKNDNVQDTAEQKVQLLRNWHQLHGKKEAYDTLIKDLKKANLCTLAEKIQTIILKDITSDSENSNFRNEIQSLV [A257D],disrupting interaction
2,MLGIWTLLPLVLTSVARLSSKSVNAQVTDINSKGLELRKTVTTVETQNLEGLHHDGQFCHKPCPPGERKARDCTVNGDEPDCVPCQEGKEYTDKAHFSSKCRRCRLCDEGHGLEVEINCTRTQNTKCRCKPNFFCNSTVCEHCDPCTKCEHGIIKECTLTSNTKCKEEGSRSNLGWLCLLLLPIPLIVWVKRKEVQKTCRKHRKENQGSHESPTLNPETVAINLSDVDLSKYITTIAGVMTLSQVKGFVQKNGVNEAKIDEIKNDNVQDTAEQKVQLLRNWHQLHGKKEAYDTLIKDLKKANLCTLAEKIQTIILKDITSDSENSNFRNEIQSLV [R250Q],decreasing interaction strength
3,MLGIWTLLPLVLTSVARLSSKSVNAQVTDINSKGLELRKTVTTVETQNLEGLHHDGQFCHKPCPPGERKARDCTVNGDEPDCVPCQEGKEYTDKAHFSSKCRRCRLCDEGHGLEVEINCTRTQNTKCRCKPNFFCNSTVCEHCDPCTKCEHGIIKECTLTSNTKCKEEGSRSNLGWLCLLLLPIPLIVWVKRKEVQKTCRKHRKENQGSHESPTLNPETVAINLSDVDLSKYITTIAGVMTLSQVKGFVEKNGVNEAKIDEIKNDNVQDTAEQKVQLLRNWHQLHGKKEAYDTLIKDLKKANLCTLAEKIQTIILKDITSDSENSNFRNEIQSLV [R250E],disrupting interaction strength
4,MLGIWTLLPLVLTSVARLSSKSVNAQVTDINSKGLELRKTVTTVETQNLEGLHHDGQFCHKPCPPGERKARDCTVNGDEPDCVPCQEGKEYTDKAHFSSKCRRCRLCDEGHGLEVEINCTRTQNTKCRCKPNFFCNSTVCEHCDPCTKCEHGIIKECTLTSNTKCKEEGSRSNLGWLCLLLLPIPLIVWVKRKEVQKTCRKHRKENQGSHESPTLNPETVAINLSDVDLSKYITTIAGVMTLSQVKGFVRKNGVNEAKIYEIKNDNVQDTAEQKVQLLRNWHQLHGKKEAYDTLIKDLKKANLCTLAEKIQTIILKDITSDSENSNFRNEIQSLV [D260Y],disrupting interaction

# Variants of: B1
# Details: with fadd_human FADD
# Remark: another data set of the same source
row,effect of a mutation on the interaction,Variant
1,decreasing interaction,MLGIWTLLPLVLTSVARLSSKSVNAQVTDINSKGLELRKTVTTVETQNLEGLHHDGQFCHKPCPPGERKARDCTVNGDEPDCVPCQEGKEYTDKAHFSSKCRRCRLCDEGHGLEVEINCTRTQNTKCRCKPNFFCNSTVCEHCDPCTKCEHGIIKECTLTSNTKCKEEGSRSNLGWLCLLLLPIPLIVWVKRKEVQKTCRKHRKENQGSHESPTLNPETVAINLSDVDLSKYITTIAGVMTLSQVKGFVEKNGVNEAKIDEIKNDNVQDTAEQKVQLLRNWHQLHGKKEAYDTLIKDLKKANLCTLAEKIQTIILKDITSDSENSNFRNEIQSLV [R250E]
2,disrupting interaction strength,MLGIWTLLPLVLTSVARLSSKSVNAQVTDINSKGLELRKTVTTVETQNLEGLHHDGQFCHKPCPPGERKARDCTVNGDEPDCVPCQEGKEYTDKAHFSSKCRRCRLCDEGHGLEVEINCTRTQNTKCRCKPNFFCNSTVCEHCDPCTKCEHGIIKECTLTSNTKCKEEGSRSNLGWLCLLLLPIPLIVWVKRKEVQKTCRKHRKENQGSHESPTLNPETVAINLSDVDLSKYITTIAGVMTLSQVKGFVRKNGVNEAKIYEIKNDNVQDTAEQKVQLLRNWHQLHGKKEAYDTLIKDLKKANLCTLAEKIQTIILKDITSDSENSNFRNEIQSLV [D260Y]
